Laboratory results reported in patent US20070243589A1 (Pfizer, published 2007).

T1: biotinylated IL-22 with an N-terminal His/FLAG tag (bio.IL-22H/F) (human, UniProt Q9GZX6 34-179, biotinylated (site not stated))
T1 construct: not shown: N-terminal His/FLAG tag
T1 sequence: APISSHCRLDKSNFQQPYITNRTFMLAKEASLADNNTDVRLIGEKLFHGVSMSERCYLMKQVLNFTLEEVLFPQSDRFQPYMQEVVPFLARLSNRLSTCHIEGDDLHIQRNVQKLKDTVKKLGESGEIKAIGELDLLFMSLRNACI


Tests used:
[1] = target: T1, biotinylated IL-22 with an N-terminal …; assay: biotinylated IL-22 binding IL-22 receptor complex competition assay, purified scFv, fully germlined
Experimental: (§1) Microtiter plates were coated with an IL-22 receptor complex antibody (1 μg/ml in PBS), and incubated for 1.5 hours at room temperature. Plates were washed three times in PBST, and blocked for 1 hour at room temperature with 2% MPBS. After a further 3 washes, diluted cell conditioned medium containing an IL-22 receptor complex was added and incubated overnight at 4° C. Crude scFv supernatants were prepared as described above. The following day, 25 μl of diluted scFv sample and 25 μl of bio.IL-22H/F (6 ng/ml) were added to the washed plates, and incubated for 1.5 hours at room temperature. Plates were washed 3 times in PBST, then binding of bio.IL-22H/F to the IL-22 receptor complex was detected with Europium-Streptavidin and the DELFIA® reagent kit (PerkinElmer). Time Resolved Fluorescence was measured using a Victor 2™ Plate Reader (Perkin Elmer).
(§2) Sequence data for the six parent clones was used to identify the nearest germline sequence for the heavy and light chain of each clone. Appropriate mutations were made using standard site directed mutagenesis techniques with the appropriate mutagenic primers. Mutation of sequences was confirmed by sequence analysis. Purified scFv from the germlined parent clones were tested in the biotinylated IL-22 binding IL-22 receptor complex competition assay as described earlier, in order to establish the clone potency as measured by IC₅₀ values in the assay.

[2] = target: T1, biotinylated IL-22 with an N-terminal …; assay: IL-22 receptor complex inhibition assay (bio.IL-22H/F binding to IL-22 receptor complex, DELFIA), IgG
Experimental: Potency of purified IgG was verified in the biochemical IL-22 receptor complex inhibition assay as described below. IgG concentrations were titrated in order to obtain potency values.
as §1

[3] = target: T1, biotinylated IL-22 with an N-terminal …; assay: biotinylated IL-22 binding IL-22 receptor complex competition assay, purified scFv, parent
Experimental: as §1, §2

[4] = target: T1, biotinylated IL-22 with an N-terminal …; assay: IL-22 receptor complex inhibition assay (bio.IL-22H/F binding to IL-22 receptor complex, DELFIA), scFv
Experimental: (§3) Both the IL-22/IL-22R binding assay (described above) and the IL-22/IL-22 receptor complex assay (described below) were used. ScFv concentrations were titrated in order to establish the clone potencies as measured by assay IC₅₀ values. These were determined using GraphPad Prism software and four-parameter logistic equation curve fitting.
as §1

[5] = target: T1, biotinylated IL-22 with an N-terminal …; assay: DELFIA competition assay: scFv titrated against bio.IL-22H/F binding to the captured IL-22 receptor complex
Experimental: as §3, §1

[6] = target: T1, biotinylated IL-22 with an N-terminal …; assay: as above; remark: listed apart in the source
Experimental: as §1
Purified scFv from positive clones identified from the screening were tested in the DELFIA® IL-22 receptor complex competition assay as described above. A titration of scFv concentrations was used in order to establish the clone potency as measured by IC₅₀ values in the assay. Fourteen optimized clones were designated 097D09, 062A09, 062G05, 087B03, 367D04, 368D04, 166B06, 166G05, 375G06, 376B10, 354A08, 355B06, 355E04, and 356A11.

IC50 [1]	IC50 [3]	IC50 [4]	IC50 [5]	IC50 [6]	Binder	other results
143 nM	–	–	–	–	GIL01 scFv, fully germlined (scFv) scFv: QVQLVESGGGLVKPGGSLRLSCAASGFTFSDYYMSWIRQAPGKGLEWVSAISGSGGSTYYADSVKGRITISRDNAKNSLYLQMNSLRAEDTAVYYCARGLWVWDPLDYWGRGTLVTVSSGGGGSGGGGSGGGGSDIQMTQSPSTLSASVGDRVTITCRASEGIYHWLAWYQQKPGKAPKLLIYKASSLASGVPSRFSGSGSGTDFTLTISSLQPDDFATYYCQQYSNYPLTFGGGTKVEIKRA	–
14 nM	–	–	–	–	GIL68 scFv, fully germlined (scFv) scFv: QVQLVQSGAEVKKPGASVKVSCKASGYTFSDYYIHWVRQAPGQGLEWMGWVNPDTGGTRYAQKFQGRVTMTRDMSISTAYMELSRLRSDDTAVYYCARDLTGFDPFDIWGQGTLVTVSSGGGGSGGGGSGGGGSASSVLTQPPSVSVAPGKTARITCGGNNFRNKRVHWYQQKPGQAPVLVIYYDSDRPSGIPERFSGSRSGNTATLTISRVEAGDEADYYCQVWDSSTDRPLFGGGTKLTVLGA	–
–	–	–	–	–	GIL60 IgG (non-germlined parent) (antibody, V domains shown, Human IgG4 heavy chain constant domain) VH: EVQLVESGGGVVRPGGSLRLSCAASGFTFDDYGMNWVRQAPGKGLEWVSGVNWNGGTRDYAASVKGRFTISRDNAKNSLYLQMNSLRAEDTALYYCARGWYSGSFYYFGYWGRGTLVTVSS VL: QAVLTQPSSVSGSPGQSITISCTGASGDVGAYNFVSWYQQHPGKTPKLIIYDVNKRPSGVSNRFSGSKSGNTASLTISGLQAEDESDYYCSSYTSTFSVVFGGGTKVTVLG	IC50 [2]: 15 nM
–	–	–	–	–	GIL16 IgG (non-germlined parent) (antibody, V domains shown, Human IgG4 heavy chain constant domain) VH: QVQLVESGAEVKKPGASVKVSCKASGYTFTSYGISWVRQAPGQGLEWMGWISAYTGNTNYAQKFQGRVTMTTDTSTSTAYMELRSLRSDDTAVYYCARDRGYYDAFDIWGQGTLVTVSS VL: DIQMTQSPSTLSASIGDRVTITCRASEGIYHWLAWYQQKPGKAPKLLIYKASSLASGAPSRFSGSGSGTDFTLTISSLQPDDFATYYCQQYSNYPLTFGGGTKLEIKR	IC50 [2]: 10 nM
–	51 nM	43 nM	60 nM	30.8 nM	GIL60 scFv (non-germlined parent) (scFv) scFv: EVQLVESGGGVVRPGGSLRLSCAASGFTFDDYGMNWVRQAPGKGLEWVSGVNGNGGTRDYAASVKGRFTISRDNAKNSLYLQMNSLRAEDTALYYCARGWYSGSFYYFGYWGRGTLVTVSSGGGGSGGGGSGGGGSAQAVLTQPSSVSGSPGQSITISCTGASGDVGAYNFVSWYQQHPGKTPKLIIYDVNKRPSGVSNRFSGSKSGNTASLTISGLQAEDESDYYCSSYTSTFSVVFGGGTKVTVLGAA	–
40 nM	–	–	–	–	GIL92 scFv, fully germlined (scFv) scFv: QVQLVQSGAEVKKPGASVKVSCKASGYTFTDYYMHWVRQAPGQGLEWVGWINPYTGGAFYAQKFRGRVTMTRDTSISTAYMELSRLRSDDTAVYYCAREPEKFDFWGGDNWGRGTLVTVSSGGGGSGGGGSGGGGSAQAVLTQPPSVSGAPGQRVTISCTGSSSNIGAGYGVHWYQQLPGTAPKLLIYGNSNRPSGVPDRFSGSKSGTSASLAITGLQAEDEADYYCQSYDSSLSGYVFGGGTQLTVLSA	–
38 nM	–	–	–	–	GIL16 scFv, fully germlined (scFv) scFv: QVQLVQSGAEVKKPGASVKVSCKASGYTFTSYGISWVRQAPGQGLEWMGWISAYTGNTNYAQKFQGRVTMTTDTSTSTAYMELRSLRSDDTAVYYCARDRGYYDAFDIWGQGTLVTVSSGGGGSGGGGSGGGGSDIQMTQSPSTLSASVGDRVTITCRASEGIYHWLAWYQQKPGKAPKLLIYKASSLASGVPSRFSGSGSGTEFTLTISSLQPDDFATYYCQQYSNYPLTFGGGTKVEIKRA	–
82 nM	–	–	–	–	GIL60 scFv, fully germlined (scFv) scFv: EVQLVESGGGVVRPGGSLRLSCAASGFTFDDYGMNWVRQAPGKGLEWVSGVNWNGGTRDYAASVKGRFTISRDNAKNSLYLQMNSLRAEDTALYHCARGWYSGSFYYFGYWGRGTLVTVSSGGGGSGGGGSGGGGSAQAALTQPASVSGSPGQSITISCTGASGDVGAYNFVSWYQQHPGKAPKLIIYDVNKRPSGVSNRFSGSKSGNTASLTISGLQAEDEADYYCSSYTSTFSVVFGGGTKLTVLGA	–
–	124 nM	104 nM	95 nM	129 nM	GIL01 scFv (non-germlined parent) (scFv, also called GIL 1) scFv: EVQLVESGGGLVTPGGSLRLSCAASGFTFSDYYMSWIRQAPGRGLEWVSAISGSGGSTYYADSVKGRITISRDNAKNSLYLQMSSLRSEDTAVYYCARGLWVWDPLDYWGRGTLVTVSSGGGGSGGGGSGGGGSDIQMTQSPSTLSASIGDRVTITCRASEGIYHWLAWYQQKPGKAPKLLIYKASSLASGAPSRFSGSGSGTDFTLTISSLQPDDFATYYCQQYSNYPLTFGGGTKLEIKRAAA	–
–	44 nM	49 nM	55 nM	25.9 nM	GIL16 scFv (non-germlined parent) (scFv) scFv: QVQLVESGAEVKKPGASVKVSCKASGYTFTSYGISWVRQAPGQGLEWMGWISAYTGNTNYAQKFQGRVTMTTDTSTSTAYMELRSLRSDDTAVYYCARDRGYYDAFDIWGQGTLVTVSSGGGGSGGGGSGGGGSDIQMTQSPSTLSASIGDRVTITCRASEGIYHWLAWYQQKPGKAPKLLIYKASSLASGAPSRFSGSGSGTDFTLTISSLQPDDFATYYCQQYSNYPLTFGGGTKLEIKRAAA	–
–	18 nM	16 nM	40 nM	15.3 nM	GIL92 scFv (non-germlined parent) (scFv) scFv: QVQLVQSGAEVKKPGASVKVSCKASGYTFTDYYMHWVRQAPGQGLEWVGWINPYTGGAFYAQKFRGRVTMTRDTSINTAYMELSRLGSDDTAVYYCAREPEKFDFWGGDNWGRGTMVTVSSGGGGSGGGGSGGGGSAQAVLTQPSSVSGAPGQRVTISCTGSSSNIGAGYGVHWYQQLPGTAPKLLIYGNSNRPSGVPDRFSGSKSGTSASLAITGLQAEDEADYYCQSYDSSLSGYVFGTGTQLTVLSAAA	–
